Consider one substance from PMC7102982.

In this experiment the target is Xenopus laevis FANCA, full length (Xenopus laevis). Nature of the experiment: cryo-EM structure; single-particle cryo-EM of the purified FANCA-FANCG complex (0.8 mg/ml, 0.003% DDM); four classes: FANCA CTD dimer at 3.35 and 3.46 A, two FANCA-FANCG complexes at 4.59 and 4.84 A.

The stoichiometry N is the number of molecules, sites or subunits per partner or assembly. “Xenopus laevis FANCA, full length (natural protein)”: the stoichiometry N stood at 2.
